# According to patent US20240207421A1, “NERVE TARGETING PEPTIDES AND METHODS OF USE” (ALUME BIOSCIENCES, INC., priority 2020, published 2024):
# What was measured:
# [1] = target: T1, Human MPZ (Homo sapiens, UniProt P25189); assay: Phage display library screening (Example 1, Power BI analysis), binding to Human MPZ; details: R3 Human MPZ, NextGen sequencing count of phage sequences distinct for this target
# T1 construct: purchased Novoprotein (lysate); Bon Opus Biosciences (recombinant protein) NBL1 1321 (lysate); no catalogue number printed for the Bon Opus protein
# T1 sequence (P25189 30-248): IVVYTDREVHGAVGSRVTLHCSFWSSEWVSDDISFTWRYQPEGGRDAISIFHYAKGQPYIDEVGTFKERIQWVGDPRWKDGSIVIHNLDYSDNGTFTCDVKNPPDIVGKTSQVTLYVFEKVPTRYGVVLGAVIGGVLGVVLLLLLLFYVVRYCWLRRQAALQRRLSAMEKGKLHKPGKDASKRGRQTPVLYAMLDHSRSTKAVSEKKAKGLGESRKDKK
# Source text: (§1) Phage display library screens were used to identify peptides that bind to target proteins that are expressed in human nerves and could therefore be useful for systemic in-vivo labeling of nerves during fluorescence assisted surgery. Specifically, m13 phage libraries expressing 7 or 12 random amino acid peptides, or a cyclic peptide CX7C, on the N-terminus of the minor coat protein pIII (New England Biolabs) were processed through multiple rounds of selection for binding to target proteins expressed in peripheral nerve (Table 1).
# (§2) The library was processed through up to 4 binding and wash cycles. For selection, phage libraries were incubated for up to 24 hours at 4° C. in 96 well plates that had been coated with one of the target proteins. Plates were then washed with PBS and phage were eluted using 0.2M glycine pH 2.0. Phage supernatants where then neutralized with Tris pH 9.0 prior to plating on TG1 bacteria and LB agar plates. Colonies were counted to determine titer followed by DNA preparation of pools of phage and NextGen sequencing. After rounds of selection, phage were pooled and amplified for iterative selection. Phage that were bound at each round were sequenced. NextGen sequencing of pools after 2, 3 and 4 rounds of selection was used to isolate candidate sequences that were analyzed further to identify those that specifically bound each unique target protein.
# (§3) DNA sequences were trimmed of all vector amino acids and imported as a peptide dataset into Power BI. Power BI was used to identify phage display sequences for specific columns (corresponding to each target protein) in order to identify sequences that were distinct for each protein target. The Power BI code evaluated each individual sequence for each protein target against the sequences present in other protein targets in a test for uniqueness. Using the distinct flag, the Power BI code generated a filtered peptide dataset that excluded any peptide sequence that occur in more than one column which identified a specific protein target. This method therefore identified candidate peptide sequences showing selective binding to an individual target protein. Unique sequences in each column were sorted by individual counts such that the most selected sequences appeared at the top of the column.
# [2] = system: Human MPZ; assay: Phage display library screening (Example 2, Python script analysis), binding to Human MPZ; details: combined unique sequence count, Python/R script analysis
# Procedure: (§4) Phage display library screens were used to identify peptides that bind to target proteins (including specific laminin trimers) that are expressed in human nerves, as described in Table 3. These screens were also carried out to identify peptides that could bind selectively to nerves versus muscle. Such peptides could therefore be useful for systemic in-vivo labeling of nerves during fluorescence assisted surgery. Specifically, m 13 phage libraries expressing 7 or 12 random amino acid peptides, or a cyclic peptide CX7C, on the N-terminus of the minor coat protein pIII (New England Biolabs; NEB) were processed through multiple rounds of selection for binding to target proteins expressed in nerves, or to excised human nerves, nerve extracts, or muscle, as described further below.
# as §2, with “For screening against the specified target proteins in Table 1, including LN211, LN411, LN421, and LN521, the phage” for “The”, “by” for “through”, “TGI” for “TG1”
# (§5) Python Script Analysis: For all NEB sequence datasets, a python script was used to translate, trim, and filter the peptide sequences. The script translated the nucleotide sequences, translating amber codons as glutamine in peptide sequences, and then trimmed the end sequences that come from the vector. Secondly, the script combined the unique counts of trimmed peptides with identical sequences. […] Another python script was used to group peptides from different assays according to protein target (Myelin Protein Zero, Myelin Proteolipid Protein, Myelin Basic Protein, and Nidogen-2) and also combine the unique sequence counts for each peptide. An R script was written to merge the peptide sequences from different data files and determine peptides specific for each protein target but absent from different protein binding datasets. Peptide sequences were ranked by unique sequence count.
# [3] = target: T2, Human Myelin Basic Protein (Homo sapiens, UniProt P02686); assay: Phage display library screening (Example 1, Power BI analysis), binding to Human Myelin Basic Protein; set-up: Enzo 200-606-M001 from human; purchased Enzo 200-606-M001; host or cells: human brain (tissue-derived); details: R3 Myelin Basic Protein, NextGen sequencing count of phage sequences distinct for this target
# Source text: as §1, §2, §3
# [4] = system: Human Myelin PLP; assay: Phage display library screening (Example 1, Power BI analysis), binding to Human Myelin PLP; details: R3 Myelin PLP, NextGen sequencing count of phage sequences distinct for this target
# Source text: as §1, §2, §3
# [5] = system: Human Myelin PLP; assay: Phage display library screening (Example 2, Python script analysis), binding to Human Myelin PLP; details: combined unique sequence count, Python/R script analysis
# Procedure: as §4
# as §2, with “For screening against the specified target proteins in Table 1, including LN211, LN411, LN421, and LN521, the phage” for “The”, “by” for “through”, “TGI” for “TG1”
# as §5
# [6] = target: T2, Human Myelin Basic Protein; assay: Phage display library screening (Example 2, Python script analysis), binding to Human Myelin Basic Protein; set-up: Enzo 200-606-M001 from human; purchased Enzo 200-606-M001; host or cells: human brain (tissue-derived); details: R3 Myelin Basic Protein; combined unique sequence count, Python/R script analysis
# Outline: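 Target protein-coated wells were panned with M13 phage libraries displaying 7- or 12-mer random or cyclic CX7C peptides on pIII, over up to 4 rounds (up to 24 h, 4° C), with glycine pH 2.0 elution. Pools from rounds 2–4 were NextGen-sequenced. Peptides specific to each target were ranked by unique sequence count.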
# T2 sequence (P02686 134-304): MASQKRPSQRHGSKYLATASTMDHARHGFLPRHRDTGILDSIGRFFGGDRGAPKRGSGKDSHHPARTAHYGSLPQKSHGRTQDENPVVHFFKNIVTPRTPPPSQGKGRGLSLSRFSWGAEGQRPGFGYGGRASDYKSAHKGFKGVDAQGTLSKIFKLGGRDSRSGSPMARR
substance,measurement,setting,value
VLTKPMP (R3 Human MPZ-binding peptide),Count,[1],56
same,Count,[2],56
ILLPSLN (R3 Myelin Basic Protein-binding peptide),Count,[3],13
TNPWKPH (R3 Myelin PLP-binding peptide),Count,[4],62
same,Count,[5],62
FKMPIPT (R3 Myelin PLP-binding peptide),Count,[4],34
same,Count,[5],34
VLKNNPT (R3 Human MPZ-binding peptide),Count,[1],86
same,Count,[2],87
GLTPKLF (R3 Human MPZ-binding peptide),Count,[1],48
DRNSVFW (R3 Human MPZ-binding peptide),Count,[1],50
same,Count,[2],50
GPFLFTV (R3 Myelin PLP-binding peptide),Count,[4],47
AGFPPNT (R3 Myelin Basic Protein-binding peptide),Count,[3],10
LALYARM (R3 Myelin PLP-binding peptide),Count,[4],44
same,Count,[5],44
MTPHTSC (R3 Myelin PLP-binding peptide),Count,[4],62
EKPSWTR (R3 Myelin PLP-binding peptide),Count,[4],33
same,Count,[5],33
DGKNTSN (R3 Myelin Basic Protein-binding peptide),Count,[3],10
LPMRILT (R3 Myelin Basic Protein-binding peptide),Count,[3],16
same,Count,[6],16
ALPLSAS (R3 Human MPZ-binding peptide),Count,[1],196
same,Count,[2],197
SHSPGNK (R3 Human MPZ-binding peptide),Count,[1],67
same,Count,[2],79
GDERIVRTLSHN (R3 Human MPZ-binding peptide),Count,[1],47
HQGSRTY (R3 Myelin PLP-binding peptide),Count,[4],53
same,Count,[5],53
LRPISHE (R3 Myelin Basic Protein-binding peptide),Count,[3],12
ATLKPYR (R3 Myelin PLP-binding peptide),Count,[4],68
same,Count,[5],68
DPITRLK (R3 Human MPZ-binding peptide),Count,[1],92
same,Count,[2],93
FPVVTRN (R3 Myelin PLP-binding peptide),Count,[4],42
RVPHSRT (R3 Human MPZ-binding peptide),Count,[1],49
YPKLWTY (R3 Myelin PLP-binding peptide),Count,[4],35
same,Count,[5],35
NPNWRTI (R3 Myelin PLP-binding peptide),Count,[4],34
same,Count,[5],34
WPSISRP (R3 Human MPZ-binding peptide),Count,[1],57
same,Count,[2],58
AWSTSSV (R3 Myelin Basic Protein-binding peptide),Count,[3],12
same,Count,[6],12
DTSRTME (R3 Myelin PLP-binding peptide),Count,[4],33
same,Count,[5],33
SHLASRP (R3 Human MPZ-binding peptide),Count,[1],97
MQTQGRV (R3 Myelin Basic Protein-binding peptide),Count,[3],12
GPLRMAT (R3 Human MPZ-binding peptide),Count,[1],50
same,Count,[2],51
TMASPAK (R3 Human MPZ-binding peptide),Count,[1],52
same,Count,[2],58
SVLRMLN (R3 Myelin Basic Protein-binding peptide),Count,[3],16
YTPMGTG (R3 Myelin PLP-binding peptide),Count,[4],50
same,Count,[5],50
AITSRNA (R3 Myelin Basic Protein-binding peptide),Count,[3],15
AGQLMRCANC (R3 Myelin Basic Protein-binding peptide),Count,[3],12
TESLFPH (R3 Human MPZ-binding peptide),Count,[1],50
same,Count,[2],52
QIGVLPS (R3 Myelin Basic Protein-binding peptide),Count,[3],11
SKSDAWR (R3 Myelin Basic Protein-binding peptide),Count,[3],14
SMWSQFR (R3 Myelin PLP-binding peptide),Count,[4],34
same,Count,[5],34
NPSHHPR (R3 Myelin PLP-binding peptide),Count,[4],37
same,Count,[5],37
RHNVEFS (R3 Myelin PLP-binding peptide),Count,[4],42
same,Count,[5],42
SPDRTSL (R3 Myelin Basic Protein-binding peptide),Count,[3],12
same,Count,[6],12
NDTKTPS (R3 Myelin Basic Protein-binding peptide),Count,[3],19
IKPPYTH (R3 Human MPZ-binding peptide),Count,[1],78
same,Count,[2],82
KMAGHTV (R3 Human MPZ-binding peptide),Count,[1],51
same,Count,[2],54
QNTGLKW (R3 Myelin Basic Protein-binding peptide),Count,[3],11
same,Count,[6],11
ETTRNYG (R3 Human MPZ-binding peptide),Count,[1],68
same,Count,[2],69
HPSTWHK (R3 Myelin Basic Protein-binding peptide),Count,[3],18
TSPWELR (R3 Human MPZ-binding peptide),Count,[1],107
same,Count,[2],108
WTMKPNY (R3 Myelin Basic Protein-binding peptide),Count,[3],13
same,Count,[6],14
DPWVMLR (R3 Myelin Basic Protein-binding peptide),Count,[3],11
same,Count,[6],11
EHGYYKV (R3 Myelin Basic Protein-binding peptide),Count,[3],16
same,Count,[6],17
HRLPWHH (R3 Myelin Basic Protein-binding peptide),Count,[3],10
same,Count,[6],10
SAHAKHH (R3 Human MPZ-binding peptide),Count,[1],51
same,Count,[2],52
LSSPLSL (R3 Human MPZ-binding peptide),Count,[1],56
same,Count,[2],56
